Where no end group is shown, it is not given here. The star is where a group is joined. FITC = O=C1OC2(c3ccc(O)cc3Oc3cc(O)ccc32)c2ccc(NC(=S)*)cc21; mSF = 3-benzenesulfonyl fluoride, O=S(=O)(F)c1cccc(*)c1

The target in the first test is T1, HLA-E (Homo sapiens, UniProt P13747).
T1 construct: [HLAE(hu)(22-305)]-Avitag]; made in house
T1 sequence (P13747 22-305): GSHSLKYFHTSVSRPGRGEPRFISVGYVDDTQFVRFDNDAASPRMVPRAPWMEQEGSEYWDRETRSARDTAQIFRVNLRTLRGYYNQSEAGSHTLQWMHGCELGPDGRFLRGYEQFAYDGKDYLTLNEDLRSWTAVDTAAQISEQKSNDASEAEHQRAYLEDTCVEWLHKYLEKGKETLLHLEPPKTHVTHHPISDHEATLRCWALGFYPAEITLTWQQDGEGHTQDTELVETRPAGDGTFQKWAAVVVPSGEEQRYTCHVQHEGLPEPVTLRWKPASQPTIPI
T1 sequence (P61769 21-119 partner): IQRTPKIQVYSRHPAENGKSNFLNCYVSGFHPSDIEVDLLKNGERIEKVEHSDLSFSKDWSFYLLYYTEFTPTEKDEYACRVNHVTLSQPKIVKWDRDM
The test is described as follows: Cross-linking of electrophilic peptides with [HLA-E+VL9], covalently bound HLA-E by LC-MS. It counts as binding. The following applies: peptide in 10-fold excess with [HLA-E+VL9], 4 h at 37° C. How it is done: The Cys peptide variants were equipped with a mSF warhead in a Pd-mediated coupling using Pd oxidative addition complex 1 (FIGS. 6A and 6B) X* indicating position functionalized with the electrophilic warhead). Electrophilic analogs of VL9 were subjected to cross-linking reactions in a 10-fold excess with [HLA-E+VL9] for 4 h at 37° C., and the amount of covalently bound HLA-E was determined by LC-MS as described in EXAMPLE 4.
Briefly, crosslinking reactions were performed as described in EXAMPLE 5.
“NH2-Cys(mSF)-Met-Ala-Pro-Arg-Thr-Leu-Phe-Leu-OH (H-C(mSF)MAPRTLFL-OH; SMILES CSCC[C@H](NC(=O)[C@@H](N)CSc1cccc(S(=O)(=O)F)c1)C(=O)N[C@@H](C)C(=O)N1CCC[C@H]1C(=O)N[C@@H](CCCNC(=N)N)C(=O)N[C@H](C(=O)N[C@@H](CC(C)C)C(=O)N[C@@H](Cc1ccccc1)C(=O)N[C@@H](CC(C)C)C(=O)O)[C@@H](C)O) [VL9—1Cys(mSF)]”: the “cross-linking with HLA-E (in words)” value is “no or only trace amounts of cross-linking”. On to “NH2-Val-Cys(mSF)-Ala-Pro-Arg-Thr-Leu-Phe-Leu-OH (H-VC(mSF)APRTLFL-OH; SMILES CC(C)C[C@H](NC(=O)[C@H](Cc1ccccc1)NC(=O)[C@H](CC(C)C)NC(=O)[C@@H](NC(=O)[C@H](CCCNC(=N)N)NC(=O)[C@@H]1CCCN1C(=O)[C@H](C)NC(=O)[C@H](CSc1cccc(S(=O)(=O)F)c1)NC(=O)[C@@H](N)C(C)C)[C@@H](C)O)C(=O)O) [VL9—2Cys(mSF)]”, for which the “cross-linking with HLA-E (in words)” value was “no or only trace amounts of cross-linking”. Take “NH2-Val-Met-Ala-Cys(mSF)-Arg-Thr-Leu-Phe-Leu-OH (H-VMAC(mSF)RTLFL-OH; SMILES CSCC[C@H](NC(=O)[C@@H](N)C(C)C)C(=O)N[C@@H](C)C(=O)N[C@@H](CSc1cccc(S(=O)(=O)F)c1)C(=O)N[C@@H](CCCNC(=N)N)C(=O)N[C@H](C(=O)N[C@@H](CC(C)C)C(=O)N[C@@H](Cc1ccccc1)C(=O)N[C@@H](CC(C)C)C(=O)O)[C@@H](C)O) [VL9—4Cys(mSF)]”: the “amount of covalently bound (cross-linked) HLA-E” value (“amount of covalently bound” for short) is given as 36%.

“NH2-Val-Met-Ala-Pro-Arg-Cys(mSF)-Leu-Phe-Leu-OH (H-VMAPRC(mSF)LFL-OH; SMILES CSCC[C@H](NC(=O)[C@@H](N)C(C)C)C(=O)N[C@@H](C)C(=O)N1CCC[C@H]1C(=O)N[C@@H](CCCNC(=N)N)C(=O)N[C@@H](CSc1cccc(S(=O)(=O)F)c1)C(=O)N[C@@H](CC(C)C)C(=O)N[C@@H](Cc1ccccc1)C(=O)N[C@@H](CC(C)C)C(=O)O) [VL9—6Cys(mSF)]”: the “cross-linking with HLA-E (in words)” value was “no or only trace amounts of cross-linking”. For “NH2-Val-Met-Ala-Pro-Arg-Thr-Cys(mSF)-Phe-Leu-OH (H-VMAPRTC(mSF)FL-OH; SMILES CSCC[C@H](NC(=O)[C@@H](N)C(C)C)C(=O)N[C@@H](C)C(=O)N1CCC[C@H]1C(=O)N[C@@H](CCCNC(=N)N)C(=O)N[C@H](C(=O)N[C@@H](CSc1cccc(S(=O)(=O)F)c1)C(=O)N[C@@H](Cc1ccccc1)C(=O)N[C@@H](CC(C)C)C(=O)O)[C@@H](C)O) [VL9—7Cys(mSF)]”, the “amount of covalently bound” value is listed as 22%. In the case of “NH2-Val-Met-Ala-Pro-Arg-Thr-Leu-Cys(mSF)-Leu-OH (H-VMAPRTLC(mSF)L-OH; SMILES CSCC[C@H](NC(=O)[C@@H](N)C(C)C)C(=O)N[C@@H](C)C(=O)N1CCC[C@H]1C(=O)N[C@@H](CCCNC(=N)N)C(=O)N[C@H](C(=O)N[C@@H](CC(C)C)C(=O)N[C@@H](CSc1cccc(S(=O)(=O)F)c1)C(=O)N[C@@H](CC(C)C)C(=O)O)[C@@H](C)O) [VL9—8Cys(mSF)]”, the “amount of covalently bound” value worked out at 87%. Regarding “NH2-Val-Met-Ala-Pro-Arg-Thr-Leu-Phe-Cys(mSF)-OH (H-VMAPRTLFC(mSF)-OH; SMILES CSCC[C@H](NC(=O)[C@@H](N)C(C)C)C(=O)N[C@@H](C)C(=O)N1CCC[C@H]1C(=O)N[C@@H](CCCNC(=N)N)C(=O)N[C@H](C(=O)N[C@@H](CC(C)C)C(=O)N[C@@H](Cc1ccccc1)C(=O)N[C@@H](CSc1cccc(S(=O)(=O)F)c1)C(=O)O)[C@@H](C)O) [VL9—9Cys(mSF)]”, the “cross-linking with HLA-E (in words)” value is “no or only trace amounts of cross-linking”. The same measure, in the same setting: the value for “NH2-Val-Met-Ala-Pro-Cys(mSF)-Thr-Leu-Phe-Leu-OH (H-VMAPC(mSF)TLFL-OH; SMILES CSCC[C@H](NC(=O)[C@@H](N)C(C)C)C(=O)N[C@@H](C)C(=O)N1CCC[C@H]1C(=O)N[C@@H](CSc1cccc(S(=O)(=O)F)c1)C(=O)N[C@H](C(=O)N[C@@H](CC(C)C)C(=O)N[C@@H](Cc1ccccc1)C(=O)N[C@@H](CC(C)C)C(=O)O)[C@@H](C)O) [VL9—5Cys(mSF)]” was “no or only trace amounts of cross-linking”. Consider “NH2-Val-Met-Cys(mSF)-Pro-Arg-Thr-Leu-Phe-Leu-OH (H-VMC(mSF)PRTLFL-OH; SMILES CSCC[C@H](NC(=O)[C@@H](N)C(C)C)C(=O)N[C@@H](CSc1cccc(S(=O)(=O)F)c1)C(=O)N1CCC[C@H]1C(=O)N[C@@H](CCCNC(=N)N)C(=O)N[C@H](C(=O)N[C@@H](CC(C)C)C(=O)N[C@@H](Cc1ccccc1)C(=O)N[C@@H](CC(C)C)C(=O)O)[C@@H](C)O) [VL9—3Cys(mSF)]”, for which the “amount of covalently bound” value stood at 73%.

The next test deals with T2, CD94/NKG2A binding to HLA-E (Homo sapiens, UniProt P13747).
T2 construct: [HLAE(hu)(22-305)]-Avitag]; made in house
T2 sequence (P13747 22-305): as the sequence (P13747 22-305) above
T2 sequence (P61769 21-119 partner): as the sequence (P61769 21-119 partner) above
Put plainly: Biolayer interferometry (BLI): inhibition of CD94/NKG2A binding to peptide-loaded HLA-E. Particulars: BLI after a 2 h incubation of [HLA-E+VL9] with the electrophilic peptide. As for the experimental part: Proteins were produced as described in EXAMPLE 2 and peptides were synthesized as described in EXAMPLE 3.
BLI was performed on a ForteBio Octet Red96e instrument. All proteins were diluted in 1× Kinetic Buffer (10× Kinetic buffer, Sartorius 181105) diluted in 1×PBS. A Blocking Buffer step was introduced to lower non-specific binding to the streptavidin (SA) tips by diluting 5% bovine serum albumin (BSA) and 20 μg/mL Biocytin (Sigma B4261) in 1× Kinetic Buffer. Refolded and biotinylated [HLA-E+VL9] complexes were loaded onto SA biosensors (Forte 18-5019) at ˜5 μg/ml (100 nM) with the following steps: 60 sec baseline in 1× Kinetic Buffer, 180 sec loading, 60 sec blocking in Blocking Buffer and 60 sec baseline in 1× Kinetic Buffer, all at 25° C. and 1000 rpm. hSCD and oaFC-hSCD binding to immobilized HLA-E/B2M complexes was monitored at 200 nM by a 90 sec association step, followed by a 120 sec dissociation step. Data correction was performed as follows: first, aligning the data to the average of the last baseline step on the y-axis; second, by aligning the data to the dissociation step for inter-step correction; and third by filtering the data using Savitzky-Golay Filtering.
This example describes the analysis of inhibition of CD94-NKG2A binding to HLA-E by exemplary modified peptides by bio-layer interferometry (BLI).
Briefly, proteins and VL9 or Qdm derived peptides were produced as described in EXAMPLE 2 and EXAMPLE 3. BLI measurements to determine inhibition were performed as described in EXAMPLE 4.
A general note: In BLI a coated tip is dipped into the sample, and binding shifts an interference pattern.
Take “NH2-Val-Met-Ala-Pro-Arg-Thr-Leu-Cys(mSF)-Leu-OH (H-VMAPRTLC(mSF)L-OH; SMILES CSCC[C@H](NC(=O)[C@@H](N)C(C)C)C(=O)N[C@@H](C)C(=O)N1CCC[C@H]1C(=O)N[C@@H](CCCNC(=N)N)C(=O)N[C@H](C(=O)N[C@@H](CC(C)C)C(=O)N[C@@H](CSc1cccc(S(=O)(=O)F)c1)C(=O)N[C@@H](CC(C)C)C(=O)O)[C@@H](C)O) [VL9—8Cys(mSF)]”: the “able to reduce the binding of CD94-NKG2A to HLA-E (in words)” value is given as “not”.

The test is the same for the next values; noted with them: BLI, CD94-NKG2A 200 nM.
Consider “NH2-Cha-hAr-Ala-Leu-hAr-Gln-Met-Mff-hAr-OH [Peptide B5.scrambled]”, for which the “inhibition of CD94/NKG2A binding (in words)” value is recorded as “no inhibition of binding”.

Still in this test, the particulars now being: Table 13; inhibition of CD94-NKG2A binding to HLA-E; BLOD = below the limit of detection.
As for “Lys(TAMRA)-Nle-hAr-Gln-Mff-Ala-Cha-hAr-Leu [B9_1Lys(TAMRA)]”, the BLI result is listed as “inhibition”.

As to “NH2-Val-Met-Ala-Pro-Arg-Thr-Leu-Cys(mSF)-Leu-OH (H-VMAPRTLC(mSF)L-OH; SMILES CSCC[C@H](NC(=O)[C@@H](N)C(C)C)C(=O)N[C@@H](C)C(=O)N1CCC[C@H]1C(=O)N[C@@H](CCCNC(=N)N)C(=O)N[C@H](C(=O)N[C@@H](CC(C)C)C(=O)N[C@@H](CSc1cccc(S(=O)(=O)F)c1)C(=O)N[C@@H](CC(C)C)C(=O)O)[C@@H](C)O) [VL9—8Cys(mSF)]”, the BLI result is “inhibition”. On the same count and under the same terms, the result for “hAr-Nle-hAr-Gln-Lys(CUM)-Ala-Cha-hAr-Leu [B9_5Lys(CUM)]” reads “inhibition”; that for “hAr-Nle-hAr-Gln-Lys(DOTA)-Ala-Cha-hAr-Leu [B9_5Lys(DOTA)]”, “inhibition”; that for “hAr-Nle-hAr-Gln-Lys(FITC)-Ala-Cha-hAr-Leu [B9_5Lys(FITC)]”, “inhibition”.

“hAr-Nle-hAr-Gln-Lys(TAMRA)-Ala-Cha-hAr-Leu [B9_5Lys(TAMRA)]”: the BLI result is “inhibition”. Still for that read-out and setting: the value for “hAr-Nle-hAr-Gln-Lys(ibu)-Ala-Cha-hAr-Leu [B9_5Lys(ibu)]” was “inhibition”; that for “hAr-Nle-hAr-Gln-Mff-Ala-Cha-Lys(TAMRA)-Leu [B9_8Lys(TAMRA)]” was “inhibition”. Still for that read-out and setting: the value for “hAr-Nle-hAr-Gln-Mff-Ala-Cha-Lys(ibu)-Leu [B9_8Lys(ibu)]” was “inhibition”; that for “hAr-Nle-hAr-Gln-Mff-Ala-Cha-hAr-Leu-Leu-Pro-Glu-Thr-Gly-Gly [Peptide B9_LPETGG]” was “inhibition”.

The same test, now with this note: Table 15, peptides with additional amino acids at the N-terminus; BLOD = below the limit of detection.
Take “Gly-hAr-Nle-hAr-Gln-Mff-Ala-Cha-hAr-Leu [Peptide G1_B9]”: the BLI result is “inhibition”.

A further test concerns the target T1, HLA-E. Put plainly: Binding to HLA-E by Fluorescence Polarization (FP). Particulars: Table 18. As for the experimental part:
This example describes the analysis of binding of modified VL9 based peptides to HLA-E by Fluorescence Polarization (FP).
Briefly, proteins and VL9 or Qdm derived peptides were produced as described in EXAMPLE 2 and EXAMPLE 3 and binding to HLA-E was measured with Fluorescence Polarization.
Background: Polarisation of emitted light reports the rotation of a fluorescent probe.
In the case of “ALCAPRLCL (cysteine pairing not given here) [Peptide P21]”, the FP result is on record as “Binding”.

For the substance “AMCGALCLF (cysteine pairing not given here) [Peptide P32]”, the FP result is “Binding”. As to “Ala-Leu-Cys-Ala-Pro-Arg-Leu-Cys-Leu-Gly-Gly-Lys(FITC) (ALCAPRLCLGGK(FITC); cysteine pairing not given here) [P21(FITC)]”, the FP result is recorded as “Binding”. Consider “Ala-Leu-Cys-Arg-Trp-Arg-Cys-Leu-Tyr-Gly-Gly-Lys(FITC) (ALCRWRCLYGGK(FITC); cysteine pairing not given here) [P28(FITC)]”, for which the FP result is given as “Binding”. Regarding “Ala-Leu-Cys-Trp-Arg-Val-Pro-Cys-Thr (ALCWRVPCT-NH2; cysteine pairing not given here) [Peptide P20]”, the FP result is “Binding”. On to “Ala-Leu-Cys-Trp-Arg-Val-Pro-Cys-Thr-Gly-Gly-Lys(FITC) (H-ALCWRVPCTGGK(FITC)-NH2; cysteine pairing not given here) [P20(FITC)]”, for which the FP result is listed as “Binding”. Same read-out and setting: the value for “Ala-Leu-Cys-Trp-His-Val-Pro-Cys-Gln-Gly-Gly-Lys(FITC) (ALCWHVPCQGGK(FITC); cysteine pairing not given here) [P23(FITC)]” was “Binding”; that for “Ala-Met-Cys-Gly-Ala-Leu-Cys-Leu-Phe-Gly-Gly-Lys(FITC) (AMCGALCLFGGK(FITC); cysteine pairing not given here) [P32(FITC)]” was “Binding”.

On to “Ala-Met-Cys-Gly-Pro-Arg-Cys-Leu-Trp-Gly-Gly-Lys(FITC) (AMCGPRCLWGGK(FITC); cysteine pairing not given here) [P1(FITC)]”, for which the FP result was “Binding”.

The values are drawn from patent US20250074942A1, “COMPOSITIONS AND METHODS FOR COVALENT PEPTIDE-BASED MODULATORS OF HLA-E” (Calico Life Sciences LLC, priority 2022, published 2025).
